# Test results taken from paper doi:10.1101/862326.
# Where two headings read alike, the source gives them in different places.
# T1: TRBP2-dsRBD1 (UniProt Q15633 1-105)
# T1 sequence: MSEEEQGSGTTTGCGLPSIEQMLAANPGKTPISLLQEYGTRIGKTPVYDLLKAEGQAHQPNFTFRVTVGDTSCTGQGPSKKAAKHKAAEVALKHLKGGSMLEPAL
# T2: dADAR-dsRBD1 (UniProt Q9NII1 48-140)
# T2 sequence: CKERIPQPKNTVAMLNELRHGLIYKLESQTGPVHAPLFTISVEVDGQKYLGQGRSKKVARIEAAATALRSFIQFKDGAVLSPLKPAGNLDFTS
# Experiments:
# Test in all cases: ITC
# TRBP2-dsRBD1 [1] = molecular target: T1, TRBP2-dsRBD1
# dADAR-dsRBD1 [2] = molecular target: T2, dADAR-dsRBD1
# dADAR-dsRBD1 [3] = molecular target: T2, dADAR-dsRBD1; remark: listed apart in the source
# TRBP2-dsRBD1 [4] = molecular target: T1, TRBP2-dsRBD1; remark: listed apart in the source
# dADAR-dsRBD1 [5] = molecular target: T2, dADAR-dsRBD1; remark: listed apart in the source
# TRBP2-dsRBD1 [6] = molecular target: T1, TRBP2-dsRBD1; remark: listed apart in the source
# TRBP2-dsRBD1 [7] = molecular target: T1, TRBP2-dsRBD1; remark: listed apart in the source
# dADAR-dsRBD1 [8] = molecular target: T2, dADAR-dsRBD1; remark: listed apart in the source
# TRBP2-dsRBD1 [9] = molecular target: T1, TRBP2-dsRBD1; remark: listed apart in the source
# dADAR-dsRBD1 [10] = molecular target: T2, dADAR-dsRBD1; remark: listed apart in the source
binder,measurement,setting,value
miR-16-1 (dsRNA) RNA 1: UAGCAGCACGUAAAUAUUGGCG RNA 2: CCAGUAUUAACUGUGCUGCUGAA,Kd,TRBP2-dsRBD1 [1],890 ± 210 nM
same,Kd,dADAR-dsRBD1 [2],270 ± 50 nM
miR-16-1-D (dsRNA) RNA 1: UAGCAGCACGUAAAUAUUGGCG RNA 2: CCAGUAUUUACGUGCUGCUGAA,Kd,dADAR-dsRBD1 [3],430 ± 100 nM
same,Kd,TRBP2-dsRBD1 [4],500 ± 40 nM
miR-16-1-M (dsRNA) RNA 1: UAGCAGCACGUAAAUAUUGGCG RNA 2: CCAGUAUUAACGUGCUGCUGAA,Kd,dADAR-dsRBD1 [5],780 ± 240 nM
same,Kd,TRBP2-dsRBD1 [6],2120 ± 220 nM
miR-16-1-B (dsRNA) RNA 1: UAGCAGCACGUAAAUAUUGGCG RNA 2: CCAGUAUUUACUGUGCUGCUGAA,Kd,TRBP2-dsRBD1 [7],690 ± 130 nM
same,Kd,dADAR-dsRBD1 [8],270 ± 70 nM
D10RNA (dsRNA) RNA 1: UUAUAAAUGC RNA 2: GCAUUUAUGA,Kd,TRBP2-dsRBD1 [9],2210 ± 510 nM
same,Kd,dADAR-dsRBD1 [10],210 ± 100 nM
